Target: SERP2475 (Nhi), full-length (Staphylococcus epidermidis RP62a)
Test: SEC

SERP2475 (Nhi), full-length (enzyme)
stoichiometry N: 2

Source: publication doi:10.1101/776245
